Reference: patent publication US20250215091A1, “Anti-GAL3 Antibodies and Compositions” (Les Laboratoires Servier, priority 2022, published 2025)

T1: Gal3 CRD domain from rat (rat, UniProt P08699 118-262, limits assumed)
T1 construct: domain: CRD domain; also called rat Gal3-CRD
T1 sequence (looked up): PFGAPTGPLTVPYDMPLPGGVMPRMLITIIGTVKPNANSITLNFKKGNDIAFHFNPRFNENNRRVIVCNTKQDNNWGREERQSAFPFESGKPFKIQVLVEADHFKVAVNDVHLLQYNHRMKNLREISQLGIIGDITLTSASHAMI

T2: Gal3 CRD domain from dog (dog, UniProt P38486 152-296, limits assumed)
T2 construct: domain: CRD domain; also called dog Gal3-CRD
T2 sequence (looked up): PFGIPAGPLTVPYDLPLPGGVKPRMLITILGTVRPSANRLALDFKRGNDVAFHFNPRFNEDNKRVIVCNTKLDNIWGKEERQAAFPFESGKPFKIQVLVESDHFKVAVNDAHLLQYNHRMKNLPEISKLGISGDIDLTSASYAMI


Assays:
[1] = molecular target: T3, CRD domain of human Galectin-3 (human, UniProt P17931 106-250); assay: competitive ELISA, inhibition of ASF binding to immobilized Hu-Gal3-CRD
T3 construct: Histidine-tagged; also called hu-Gal3-CRD; Hu-Gal3-CRD
Description: The inhibitory properties and IC50 of the anti-Gal3 antibodies were determined in an ELISA competitive assay by measuring the binding of ASF to immobilized CRD domain of human Gal3 in absence or presence of the antibodies at different concentrations.
The inhibition assay was performed on Hu-Gal3-CRD which was immobilized at 1 μg/mL through its His-tag on functionalized microplates. A 2-fold or 3-fold serial dilution was carried-out with the purified IgGs and added to the wells with immobilized Hu-Gal3-CRD. ASF (A1908-Sigma reference) was added at 8 μg/mL in each well with or without IgGs. ASF binding to Hu-Gal3-CRD was detected with the HRP-labeled anti-ASF sheep antibody. IC50 were estimated according to the model equation Y=Bottom+(Top−Bottom)/(1+(X/IC50)). Indicative maximal percentages of inhibition were obtained with the formula: 100%−(((mean of bottom plateau values of IgGs)×100%)/mean of irrelevant IgG values)

[2] = molecular target: T4, full length mouse Galectin-3 (mouse, UniProt P16110 2-264); assay: dose-response ELISA on immobilized m-Gal3-FL, IgG
T4 construct: Printed as 'full length'; recombinant, immobilized through a histidine tag; also called m-Gal3-FL; murine Gal3
Description: (§1) To determine the half maximal effective concentration (EC50) of the antibodies, ELISA dose-response experiments were performed on Hu-Gal3-FL and on m-Gal3-FL.
(§2) Hu-Gal3-FL and m-Gal3-FL were immobilized at 3 μg/mL through their His-tag on functionalized microplates as before. A 3.3-fold serial dilution was carried-out with the purified IgGs, added to the wells containing immobilized Hu-Gal3-FL or m-Gal3-FL and detected with an anti-Fab.HRP antibody.

[3] = molecular target: T4, full length mouse Galectin-3; assay: SPR Biacore T-200, antibody captured by anti-human Fc, Gal3 in solution
Description: (§3) The CM5 sensor surface was first immobilized with an anti-human Fc mAb using a standard protocol. The entire sensor surface was first activated by injecting a 1:1 (v/v) mixture of 400 mM EDC and 100 mM NHS at a flow rate of 10 μL/minute for 7 minutes. Monoclonal anti-human Fc antibody (Millipore AP113), 25 μg/mL in Na acetate pH5, 360 s were flowed at 10 μL/minute to reach 10000 RU on both flow cells followed by the injection of 1 M ethanolamine, pH8.5 for 7 minutes at a flow rate of 10 μL/minute. During the entire immobilization procedure, HBS-P was used as the running buffer.
(§4) Antibody samples were prepared at 5 μg/ml and were injected for 30 seconds at 10 μL/minute. In general, 400 to 680 resonance units of antibodies were captured on the chip.

[4] = molecular target: T5, full length human Galectin-3 (human, UniProt P17931 2-250); assay: as above
T5 construct: Printed as 'full length'; recombinant, immobilized through a histidine tag; also called hu-Gal3-FL; Hu-Gal3-FL
Description: as §3, §4

[5] = molecular target: T5, full length human Galectin-3; assay: dose-response ELISA on immobilized Hu-Gal3-FL, IgG
Description: as §1, §2

[6] = molecular target: T4, full length mouse Galectin-3; assay: ratio of the ELISA EC50 values on Hu-Gal3-FL and m-Gal3-FL
Description: as §1, §2

[7] = molecular target: T6, human full-length Galectin-7 (human, UniProt P47929 1-136); assay: ELISA on immobilised antigen (3 µg/mL), purified IgG at 15-20 µg/mL, anti-Fab.HRP, OD 450 nm
T6 construct: full-length; Histidine-tagged; also called Hu-Gal7; Gal7
Description: (§5) IgG specificity to Gal3 was tested by checking the absence of binding on human Gall and Gal7 by ELISA.
(§6) Hu-Gall and Hu-Gal7 were immobilized at 3 μg/mL. Purified IgGs were added into the wells (15-20 μg/mL final concentration) and detected with an anti-Fab.HRP antibody. Rabbit antibodies directed against Gall (Abcam ab25138 reference) and Gal7 (Abcam ab108623 reference) were used at 5 μg/mL as antigen-coating positive controls and detected with an anti-rabbit.HRP secondary antibody (7074S-Cell Signaling reference).

[8] = molecular target: T7, human full-length Galectin-1 (human, UniProt P09382 2-135); assay: as above
T7 construct: full-length; Histidine-tagged; also called Hu-Gall; Gall
Description: as §5, §6

[9] = molecular target: T8, Gal3 CRD domain from cynomolgus (cynomolgus, UniProt A0A7N9CYL1 103-247); assay: SPR single-cycle kinetics, captured antibody, Gal3-CRD 0.5-50 nM
T8 construct: domain: CRD domain; also called cynomolgus Gal3-CRD
Description: as §3, §4
(§7) Kd values were also determined by SPR using […] kinetics analysis. A total of 5 concentrations of Gal3 CRD domain from human, dog, rat and cynomolgus (Novalix) [0.5-50] nM were injected over the antibody capture surfaces for 210 seconds followed by a dissociation phase of 600 seconds at 30 μL/minute. At the end of each cycle, capture surfaces were regenerated by 2 injections of glycine pH 1.5, for 30 seconds at 10 μL/minute, followed by an extra wash with glycine pH 1.5. Fresh antibody was captured at the beginning of each cycle.

[10] = molecular target: T1, Gal3 CRD domain from rat; assay: as above
Description: as §3, §4, §7

[11] = molecular target: T3, CRD domain of human Galectin-3; assay: as above
Description: as §3, §4, §7

[12] = molecular target: T2, Gal3 CRD domain from dog; assay: as above
Description: as §3, §4, §7

T7 sequence (P09382 2-135 limits assumed): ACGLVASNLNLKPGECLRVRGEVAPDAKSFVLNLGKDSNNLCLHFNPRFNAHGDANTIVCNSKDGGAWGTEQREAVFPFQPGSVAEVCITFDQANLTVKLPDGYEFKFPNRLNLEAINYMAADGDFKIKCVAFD
T5 sequence (P17931 2-250 limits assumed): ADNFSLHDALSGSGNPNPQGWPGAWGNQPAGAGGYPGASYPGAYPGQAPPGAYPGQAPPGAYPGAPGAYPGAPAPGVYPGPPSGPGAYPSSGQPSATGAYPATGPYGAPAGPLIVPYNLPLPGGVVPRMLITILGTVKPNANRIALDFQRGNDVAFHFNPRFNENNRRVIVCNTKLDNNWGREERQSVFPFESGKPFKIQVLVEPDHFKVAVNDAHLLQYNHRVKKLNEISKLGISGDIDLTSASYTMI
T3 sequence (P17931 106-250 limits assumed): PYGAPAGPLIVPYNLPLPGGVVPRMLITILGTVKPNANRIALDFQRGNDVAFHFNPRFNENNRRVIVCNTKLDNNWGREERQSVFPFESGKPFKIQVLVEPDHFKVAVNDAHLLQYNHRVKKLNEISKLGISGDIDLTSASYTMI
T4 sequence (P16110 2-264 limits assumed): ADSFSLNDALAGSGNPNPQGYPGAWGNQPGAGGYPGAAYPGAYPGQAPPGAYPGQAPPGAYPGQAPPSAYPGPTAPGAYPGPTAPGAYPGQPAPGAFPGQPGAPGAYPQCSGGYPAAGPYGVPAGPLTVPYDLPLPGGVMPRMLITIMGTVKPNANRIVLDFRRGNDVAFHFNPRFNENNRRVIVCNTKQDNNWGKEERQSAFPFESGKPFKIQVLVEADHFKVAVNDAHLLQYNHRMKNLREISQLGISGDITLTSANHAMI
T6 sequence (P47929 whole entry): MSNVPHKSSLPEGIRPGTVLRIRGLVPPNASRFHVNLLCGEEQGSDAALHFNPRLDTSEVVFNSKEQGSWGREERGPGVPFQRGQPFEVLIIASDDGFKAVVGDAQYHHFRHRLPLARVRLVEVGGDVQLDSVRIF

Row | IC50 [1] [nM] | Max % inhibition [1] [%] | EC50 [2] [nM] | Kd [3] [nM] | Kd [4] [nM] | EC50 [5] [nM] | Ratio (Human/mouse Gal3 EC50 ratio) [6] | binding result [7] | binding result [8] | Kd [9] [nM] | Kd [10] [nM] | Kd [11] [nM] | Kd [12] [nM] | Binder
1 | 5.1 | 82 | 0.16 | 1.34 | 13 | 0.26 | 2 | no binding (tested: 15-20 µg/mL) | no binding (tested: 15-20 µg/mL) | 10 | 4.8 | 15 | 12 | anti-Gal3 antibody D06 (antibody, V domains shown) VH: EVQLVESGGSLVKPGGSLRLSCAASGFTFSNYNMNWVRQAPGKGLEWISSIYGSSRYIYYADFVKGRFTISRDNAKNSLYLQMNSLRAEDTAVYYCVRSGYGGMDVWGRGTLVTVSS VL: QSVLTQPASVSGSPGQSITISCAGTSSDVGGYNGVSWYQQHPGKAPKLMIYYDSYRPSGVSNRFSGSKSGNTASLTISGLQAEDEADYYCSSGTDYSTRVFGGGTKLEIK
2 | 5.2 | 65 | 76 | 4.13 | 7.38 | 34 | 2 | no binding (tested: 15-20 µg/mL) | no binding (tested: 15-20 µg/mL) |  |  |  |  | anti-Gal3 antibody E02 (antibody, V domains shown) VH: EVQLVESGGSLVKPGGSLRLSCAASGFTFSNYAMNWVRQAPGKGLEWISSIYGSSRSISYADFVKGRFTISRDNAKNSLYLQMNSLRAEDTAVYYCVRSSYNYYYGNGMDVWGRGTLVTVSS VL: QSVLTQPASVSGSPGQSITISCAGTSSDVGGYGGVSWYQQHPGKAPKLMIYYDSYRPSGVSNRFSGSKSGNTASLTISGLQAEDEADYYCSSSTSYSTRVFGGGTKLEIK
3 |  |  |  | 3.47 | 8.8 |  |  | no binding (tested: 15-20 µg/mL) | no binding (tested: 15-20 µg/mL) |  |  |  |  | anti-Gal3 antibody B12 (antibody, V domains shown) VH: EVQLVESGGSLVKPGGSLRLSCAASGFTFSNDDMNWVRQAPGKGLEWISSIDGSSRSIYYADFVKGRFTISRDNAKNSLYLQMNSLRAEDTAVYYCVRSSGYSGGGMDVWGRGTLVTVSS VL: QSVLTQPASVSGSPGQSITISCAGTSSDVGGSYNVAWYQQHPGKAPKLMIYSDSYRPSGVSNRFSGSKSGNTASLTISGLQAEDEADYYCSSYTSNSARVFGGGTKLEIK
4 | 3.2 | 63 | 25.9 | 7.81 | 6.26 | 14.3 | 2 | no binding (tested: 15-20 µg/mL) | no binding (tested: 15-20 µg/mL) |  |  |  |  | anti-Gal3 antibody E01 (antibody, V domains shown) VH: EVQLVESGGSLVKPGGSLRLSCAASGFTFSNNYMNWVRQAPGKGLEWISNINGASRNIAYADFVKGRFTISRDNAKNSLYLQMNSLRAEDTAVYYCVRSSDYDGGMDVWGRGTLVTVSS VL: QSVLTQPASVSGSPGQSITISCAGTSSDVGGNSYVSWYQQHPGKAPKLMIYYDSYRPSGVSNRFSGSKSGNTASLTISGLQAEDEADYYCSSSTYGSTRVFGGGTKLEIK
5 | 1.8 | 83 | 13.6 | 4.53 | 6 | 0.52 | 26 | no binding (tested: 15-20 µg/mL) | no binding (tested: 15-20 µg/mL) |  |  |  |  | anti-Gal3 antibody G03 (antibody, V domains shown) VH: EVQLVESGGSLVKPGGSLRLSCAASGFTFSNYAMNWVRQAPGKGLEWISSIYGSSRYIYYADFVKGRFTISRDNAKNSLYLQMNSLRAEDTAVYYCVRSYNGGMDVWGRGTLVTVSS VL: QSVLTQPASVSGSPGQSITISCAGTSSDVGGYYNVAWYQQHPGKAPKLMIYYDSYRPSGVSNRFSGSKSGNTASLTISGLQAEDEADYYCSSSTGYSTRVFGGGTKLEIK
6 | 6 | 74 | 88 | 4.86 | 5.65 | 2.4 | 37 | no binding (tested: 15-20 µg/mL) | no binding (tested: 15-20 µg/mL) |  |  |  |  | anti-Gal3 antibody H07 (antibody, V domains shown) VH: EVQLVESGGSLVKPGGSLRLSCAASGFTFSNYNMNWVRQAPGKGLEWISNIDGSSRYIYYADFVKGRFTISRDNAKNSLYLQMNSLRAEDTAVYYCVRSYYGGMDVWGRGTLVTVSS VL: QSVLTQPASVSGSPGQSITISCAGTSSDVGGYYNVAWYQQHPGKAPKLMIYYDSYRPSGVSNRFSGSKSGNTASLTISGLQAEDEADYYCSSSTGYSTRVFGGGTKLEIK
7 |  |  |  | 7.7 | 6.64 |  |  | no binding (tested: 15-20 µg/mL) | no binding (tested: 15-20 µg/mL) |  |  |  |  | anti-Gal3 antibody E12 (antibody, V domains shown) VH: EVQLVESGGSLVKPGGSLRLSCAASGFTFSNYAMNWVRQAPGKGLEWISSIYGSSRSIYYADFVKGRFTISRDNAKNSLYLQMNSLRAEDTAVYYCVRSNNAGMDVWGRGTLVTVSS VL: QSVLTQPASVSGSPGQSITISCAGTSSDVGGYYDVSWYQQHPGKAPKLMIYYDSYRPSGVSNRFSGSKSGNTASLTISGLQAEDEADYYCSSYTSYSTRVFGGGTKLEIK
